Reference: publication PMC7515726

B1: cohesin complex protein SMC1A (natural protein)
chain: MGFLKLIEIENFKSYKGRQIIGPFQRFTAIIGPNGSGKSNLMDAISFVLGEKTSNLRVKTLRDLIHGAPVGKPAANRAFVSMVYSEEGAEDRTFARVIVGGSSEYKINNKVVQLHEYSEELEKLGILIKARNFLVFQGAVESIAMKNPKERTALFEEISRSGELAQEYDKRKKEMVKAEEDTQFNYHRKKNIAAERKEAKQEKEEADRYQRLKDEVVRAQVQLQLFKLYHNEVEIEKLNKELASKNKEIEKDKKRMDKVEDELKEKKKELGKMMREQQQIEKEIKEKDSELNQKRPQYIKAKENTSHKIKKLEAAKKSLQNAQKHYKKRKGDMDELEKEMLSVEKARQEFEERMEEESQSQGRDLTLEENQVKKYHRLKEEASKRAATLAQELEKFNRDQKADQDRLDLEERKKVETEAKIKQKLREIEENQKRIEKLEEYITTSKQSLEEQKKLEGELTEEVEMAKRRIDEINKELNQVMEQLGDARIDRQESSRQQRKAEIMESIKRLYPGSVYGRLIDLCQPTQKKYQIAVTKVLGKNMDAIIVDSEKTGRDCIQYIKEQRGEPETFLPLDYLEVKPTDEKLRELKGAKLVIDVIRYEPPHIKKALQYACGNALVCDNVEDARRIAFGGHQRHKTVALDGTLFQKSGVISGGASDLKAKARRWDEKAVDKLKEKKERLTEELKEQMKAKRKEAELRQVQSQAHGLQMRLKYSQSDLEQTKTRHLALNLQEKSKLESELANFGPRINDIKRIIQSREREMKDLKEKMNQVEDEVFEEFCREIGVRNIREFEEEKVKRQNEIAKKRLEFENQKTRLGIQLDFEKNQLKEDQDKVHMWEQTVKKDENEIEKLKKEEQRHMKIIDETMAQLQDLKNQHLAKKSEVNDKNHEMEEIRKKLGGANKEMTHLQKEVTAIETKLEQKRSDRHNLLQACKMQDIKLPLSKGTMDDISQEEGSSQGEESVSGSQRTSSIYAREALIEIDYGDLCEDLKDAQAEEEIKQEMNTLQQKLNEQQSVLQRIAAPNMKAMEKLESVRDKFQETSDEFEAARKRAKKAKQAFEQIKKERFDRFNACFESVATNIDEIYKALSRNSSAQAFLGPENPEEPYLDGINYNCVAPGKRFRPMDNLSGGEKTVAALALLFAIHSYKPAPFFVLDEIDAALDNTNIGKVANYIKEQSTCNFQAIVISLKEEFYTKAESLIGVYPEQGDCVISKVLTFDLTKYPDANPNPNEQ
B2: VRK1 kinase (enzyme)
chain: MPRVKAAQAGRPGPAKRRLAEQFAAGEVLTDMSRKEWKLGLPIGQGGFGCIYLADTNSSKPVGSDAPCVVKVEPSDNGPLFTELKFYQRAAKPEQIQKWIRTHKLKYLGVPKYWGSGLHDKNGKSYRFMIMDRFGSDLQKIYEANAKRFSRKTVLQLSLRILDILEYIHEHEYVHGDIKASNLLLSHKNPDQVYLVDYGLAYRYCPDGVHKEYKEDPKRCHDGTLEFTSIDAHKGVAPSRRGDLEILGYCMIQWLSGCLPWEDNLKDPNYVRDSKIRYRDNVAALMEKCFPEKNKPGEIAKYMESVKLLEYTEKPLYQNLRDILLQGLKAIGSKDDGKLDFSAVENGSVKTRPASKKRKKEAEESAVCAVEDMECSDTQVQEAAQTRSVESQGAIHGSMSQPAAGCSSSDSSRRQQHLGLEQDMLRLDRRGSRTRKKAQK
B3: tyrosine-protein kinase BAZ1B (enzyme)
chain: MAPLLGRKPFPLVKPLPGEEPLFTIPHTQEAFRTREEYEARLERYSERIWTCKSTGSSQLTHKEAWEEEQEVAELLKEEFPNWYEKLVLEMVHHNTASLEKLVDSAWLEIMTKYAVGEECDFEVGKEKMLKVKIVKIHPLEKVDEEAVEKKSDGACDSPSSDKENSSQMAQDLQKKETVVKEDEGRRESINDRARRSPRKLPTSLKKGERKWAPPKFLPHKYDVKLQNEDKIISNVPADSLIRTERPPNKEILRYFIRHNALRAGTGENAPWVVEDELVKKYSLPSKFSDFLLDPYKYMTLNPSTKRRNTGSPDRKPSKKPKRDSSSLSSPLNPKLWCHVHLEKSLNGPPLKVKNSKNSKSPEEHLEGVMKIMSPNNNKLHSFHIPKKGPAAKKPGKHSDKPLKAKGRGKGILNGQKSTGNSKSPSKCVKTPKTKMKQMTLLDMAKGTQKMTRTPRSSGGVPRSSGKPHKHLPPAALHLIAYYKENKDKEDKKSALSCVISKTARLLSNEDRARLPEELRALVQKRYELLEHKKRWASMSEEQRKEYLKKKRQELKERLREKAKERREREMLERLEKQKRFEDQELGGRNLPAFRLVDTPEGLPNTLFGDVALVVEFLSCYSGLLLPDAQYPITAVSLMEALSADKGGFLYLNRVLVILLQTLLQDEIAEDYGELGMKLSEIPLTLHSVSELVRLCLRRCDVQEDSEGSETDDNKDSTPFEDNEVQDEFLEKLETSEFFELTSEEKLRILTALCHRILMTYSVQDHMETRQQVSAELWKERLAVLKEENDKKRAEKQKRKEMEARNKENGKEENVLGKVDRKKEIVKIEQQVEVEADDMISAVKSRRLLSMQAKRKREIQERETKVRLEREAEEERMRKHKAAAEKAFQEGIAKAKLVLRRTPIGTDRNHNRYWLFSNEVPGLFIEKGWVHNSIDYRFKHHRKDHSNLPDDDYCPRSKKANLGKNASVNAHHGPALEAVETTVPKQGQNLWFLCDSQKELDELLSCLHPQGIRESQLKERLEKRYQEITHSIYLARKPNLGLKSCDGNQELLNFLRSDLIEVATRLQKGGLGYMEGTSEFEARVISLEKLKDFGECVIALQASVIKKFLQGFMAPKQKKRKLQSEDSTKSEEVDEEKKMVEEAKVASALEKWKTAIREAQTFSRMHVLLGMLDACIKWDMSAENARCKVCRKKGEDDKLILCDECNKAFHLFCLRPALYEVPDGEWQCPACQPPTARRNSRGRNYTEESTSEGSEGDESGEEEEEEEEEEEEEEDYEVAGLRLRPRKTIRGKQSVIPAARPGRPPGKKSHPARRSRPKDDPEVDDLVLQTKRISRRQSLELQKCEDILHKLVKYRFSWPFREPVTRDEAEDYYDVIEHPMDFQTIQNKCSCGNYRSVQEFLTDMKQVFANAELYNCRGSHVLSCMEKTEQCLLALLQKHLPGHPYVRRKRRKFPDRLADDEGDSDSESVGQSRGRRQKK
B4: RCC1 (regulator of chromatin condensation) (natural protein)
chain: MPPKRIAKRRSPPEDAIPKSKKVKVSHRSHNTEPGLVLTLGQGDVGQLGLGESVLERKKPALVPLLQDVVQAEAGGMHTVCLSQSGQVYSFGCNDEGALGRDTSVEGSEMVPGKVELQEKVVQVSAGDSHTAALTEDGRVFLWGSFRDNNGVIGLLEPMKKSMVPVQVQLDAPVVKVASGNDHLVMLTNDGDLYTLGCGEQGQLGRVPELFANRGGRQGLGRLLVPRCVLLKSRGTRGRVRFQDAFCGAYFTFAISREGHVYGFGLSNYHQLGTPGTGSCFIPQNLTSFKNSTKSWVGFSGGQHHTVCMDSEGKAYSLGRAEYGRLGLGEGAEEKSIPTLISRLPVVSSVACGASVGYAVSKDGRVFAWGMGTNYQLGTGQDEDAWSPVEMTGKQLENRVVLTVSSGGQHTVLLVKDQAQS
B5: OGT O-GlcNAc transferase (enzyme)
chain: MASSVGNVADSTEPTKRMLSFQGLAELAHREYQAGDFEAAERHCMQLWRQEPDNTGVLLLLSSIHFQCRRLDRSAHFSTLAIKQNPLLAEAYSNLGNVYKERGQLQEAIEHYRHALRLKPDFIDGYINLAAALVAAGDMEGAVQAYVSALQYNPDLYCVRSDLGNLLKALGRLEEAKACYLKAIETQPNFAVAWSNLGCVFNAQGEIWLAIHHFEKAVTLDPNFLDAYINLGNVLKEARIFDRAVAAYLRALSLSPNHAVVHGNLACVYYEQGLIDLAIDTYRRAIELQPHFPDAYCNLANALKEKGSVAEAEDCYNTALRLCPTHADSLNNLANIKREQGNIEEAVRLYRKALEVFPEFAAAHSNLASVLQQQGKLQEALMHYKEAIRISPTFADAYSNMGNTLKEMQDVQGALQCYTRAIQINPAFADAHSNLASIHKDSGNIPEAIASYRTALKLKPDFPDAYCNLAHCLQIVCDWTDYDERMKKLVSIVAEQLEKNRLPSVHPHHSMLYPLSHGFRKAIAERHGNLCLDKINVLHKPPYEHPKDLKLSDGRLRVGYVSSDFGNHPTSHLMQSIPGMHNPDKFEVFCYALSPDDGTNFRVKVMAEANHFIDLSQIPCNGKAADRIHQDGIHILVNMNGYTKGARNELFALRPAPIQAMWLGYPGTSGALFMDYIITDQETSPAEVAEQYSEKLAYMPHTFFIGDHANMFPHLKKKAVIDFKSNGHIYDNRIVLNGIDLKAFLDSLPDVKIVKMKCPDGGDNPDSSNTALNMPVIPMNTIAEAVIEMINRGQIQITINGFSISNGLATTQINNKAATGEEVPRTIIVTTRSQYGLPEDAIVYCNFNQLYKIDPSTLQMWANILKRVPNSVLWLLRFPAVGEPNIQQYAQNMGLPQNRIIFSPVAPKEEHVRRGQLADVCLDTPLCNGHTTGMDVLWAGTPMVTMPGETLASRVAASQLTCLGCLELIAKSRQEYEDIAVKLGTDLEYLKKIRGKVWKQRISSPLFNTKQYTMELERLYLQMWEHYAAGNKPDHMIKPVEVTESA

Columns and labels:
Test in all cases: affinity purification with mass spectrometry
[1] = target: Nuc1, acidic patch mutant nucleosome (hH2A.Dx10), biotinylated 185 bp 601 DNA (human) (UniProt P62807)
[2] = target: Nuc2, disk patch 2 mutant nucleosome (hH2A.Dx2, hH2B.Cx8), biotinylated 185 bp 601 DNA (human) (UniProt Q71DI3)
[3] = target: Nuc3, disk patch 3 mutant nucleosome (hH3.2x10, hH4x24, hH2B.Cx9), biotinylated 185 bp 601 DNA (human) (UniProt P20671)

| Binder | fold decrease in binding vs wild-type nucleosome [1] [fold] | fold decrease in binding vs wild-type nucleosome [2] [fold] | fold decrease in binding vs wild-type nucleosome [3] [fold] |
| --- | --- | --- | --- |
| B1 | 1.35 | – | – |
| B2 | 1.61 | – | – |
| B3 | 1.94 | – | – |
| B4 | 22 | 3.1 | 2.1 |
| B5 | 1.69 | – | – |
